# Data from patent publication US6759384 (AVENTIS PHARMACEUTICALS, dated 2004).
# Starred links: 1 amine or outer side, 2 acyl side, 3 side chain; linkers in the order of their positions; H or OH if unused. Non-standard residues stand in square brackets, D forms with d. Primed or numbered codes have the meaning given here. No end group written: not given here. *: point of attachment. Dab(Nγ-C3H7N)″ = 2,4-diaminobutyric acid with dimethylamidinium (N,N-dimethylformamidinium) on gamma-N, C[N+](C)=CNCC[C@H](N[*:1])C(=O)[*:2]; Dab(Nγ-C3H7N) = Dab bearing Nγ-dimethylamidinium (C3H7N), C[N+](C)=CNCC[C@H](N[*:1])C(=O)[*:2]; (iBu)Tyr = N-isobutyl-L-tyrosine, CC(C)CN([C@@H](Cc1ccc(O[*:3])cc1)C(=O)[*:2])[*:1]; Tyr(Me)″ = O-methyl-tyrosine (source: Y(Me)), COc1ccc(C[C@H](N[*:1])C(=O)[*:2])cc1; Thr(Me) = O-methyl-threonine (source: T(Me)), CO[C@H](C)[C@H](N[*:1])C(=O)[*:2]; Pen(Me) = S-methyl-penicillamine, CSC(C)(C)[C@H](N[*:1])C(=O)[*:2]; Orn(Nδ-C3H7N) = ornithine with dimethylamidinium on delta-N; Phe(4-NH2) = Nc1ccc(C[C@H](N)C(=O)O)cc1; NMeY = CN[C@@H](Cc1ccc(O)cc1)C(=O)O; hArg = N=C(N)NCCCC[C@H](N)C(=O)O; Cha = N[C@@H](CC1CCCCC1)C(=O)O; Agb = N=C(N)NCC[C@H](N)C(=O)O; Chg = N[C@H](C(=O)O)C1CCCCC1; Phg = N[C@H](C(=O)O)c1ccccc1; Isobutyl = CC(C)C*
# B1: Ac-(Me)Y-I-R-L-A-NH2 (peptide)
# peptide: Ac-[NMeY]IRLA-NH2
# SMILES: CC[C@H](C)[C@H](NC(=O)[C@H](Cc1ccc(O)cc1)N(C)C(C)=O)C(=O)N[C@@H](CCCNC(=N)N)C(=O)N[C@@H](CC(C)C)C(=O)N[C@@H](C)C(N)=O
# B2: Ac-Y(Me)-I-R-L-A-NH2 (peptide)
# peptide: Ac-[Tyr(Me)″]IRLA-NH2
# SMILES: CC[C@H](C)[C@H](NC(=O)[C@H](Cc1ccc(OC)cc1)NC(C)=O)C(=O)N[C@@H](CCCNC(=N)N)C(=O)N[C@@H](CC(C)C)C(=O)N[C@@H](C)C(N)=O
# B3: F(pNH2)-I-R-L-A-NH2 (peptide)
# peptide: [Phe(4-NH2)]IRLA-NH2
# modifications: N-terminus assumed
# SMILES: CC[C@H](C)[C@H](NC(=O)[C@@H](N)Cc1ccc(N)cc1)C(=O)N[C@@H](CCCNC(=N)N)C(=O)N[C@@H](CC(C)C)C(=O)N[C@@H](C)C(N)=O
# B4: Ac-Y-I-hR-L-A-NH2 (peptide)
# peptide: Ac-YI[hArg]LA-NH2
# SMILES: CC[C@H](C)[C@H](NC(=O)[C@H](Cc1ccc(O)cc1)NC(C)=O)C(=O)N[C@@H](CCCCNC(=N)N)C(=O)N[C@@H](CC(C)C)C(=O)N[C@@H](C)C(N)=O
# B5: y-I-(nR)-L-A-NH2 (peptide)
# peptide: [dY]I[Agb]LA-NH2
# modifications: N-terminus assumed
# SMILES: CC[C@H](C)[C@H](NC(=O)[C@H](N)Cc1ccc(O)cc1)C(=O)N[C@@H](CCNC(=N)N)C(=O)N[C@@H](CC(C)C)C(=O)N[C@@H](C)C(N)=O
# B6: Ac-Y-I-Dab(N^γC3H7N)-L-A-NH2 (peptide)
# peptide: Ac-YI[Dab(Nγ-C3H7N)]LA-NH2
# SMILES: CC[C@H](C)[C@H](NC(=O)[C@H](Cc1ccc(O)cc1)NC(C)=O)C(=O)N[C@@H](CCNC=[N+](C)C)C(=O)N[C@@H](CC(C)C)C(=O)N[C@@H](C)C(N)=O
# B7: Ac-Y-I-nR-L-A-NH2 (peptide)
# peptide: Ac-YI[Agb]LA-NH2
# SMILES: CC[C@H](C)[C@H](NC(=O)[C@H](Cc1ccc(O)cc1)NC(C)=O)C(=O)N[C@@H](CCNC(=N)N)C(=O)N[C@@H](CC(C)C)C(=O)N[C@@H](C)C(N)=O
# Target: human factor Xa (Enzyme Research Laboratories, Inc.) (human, UniProt P00742 41-179; P00742 235-488, limits assumed)
# Sequence (P00742 41-179 limits assumed, chain 1 of 2): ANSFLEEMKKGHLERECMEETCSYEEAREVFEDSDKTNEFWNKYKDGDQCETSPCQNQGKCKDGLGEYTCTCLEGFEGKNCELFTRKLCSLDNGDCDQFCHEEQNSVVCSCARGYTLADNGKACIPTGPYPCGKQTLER
# Sequence (P00742 235-488 limits assumed, chain 2 of 2): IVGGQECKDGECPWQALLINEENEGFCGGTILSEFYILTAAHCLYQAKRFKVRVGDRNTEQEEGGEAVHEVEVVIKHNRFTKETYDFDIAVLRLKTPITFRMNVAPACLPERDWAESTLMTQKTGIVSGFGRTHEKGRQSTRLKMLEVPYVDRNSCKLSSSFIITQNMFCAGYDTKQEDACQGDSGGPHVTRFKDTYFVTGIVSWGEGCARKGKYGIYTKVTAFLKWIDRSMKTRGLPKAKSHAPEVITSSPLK
# Experiment: chromogenic FXa inhibition
# Procedure: TBS-P buffer (50 mM Tris-Cl, pH 7.8, 200 mM NaCl, 0.05% (w/v) PEG-8000, 0.02% (w/v) NaN_3) was used for this assay. The IC$50$ was determined by combining in appropriate wells of a Costar half-area microtiter plate 25 μl human factor Xa (Enzyme Research Laboratories, Inc.; South Bend Ind.) in TBS-P; 40 μl 10% (v/v) DMSO in TBS-P (uninhibited control) or various concentrations of a peptide to be tested diluted in 10% (v/v) DMSO in TBS-P; and substrate S-2765 (Nα-benzyloxycarbonyl-D-Arg-Gly-L-Arg-p-nitroanilide; Kabi Pharmacia, Inc.; Franklin Ohio) in TBS-P.
# The assays were performed by pre-incubating the peptide inhibitor plus enzyme for 10 min, then the assay was initiated by adding substrate to obtain a final volume of 100 μl. The initial velocity of chromogenic substrate hydrolysis was measured by the change in absorbance at 405 nm using a Bio-tek Instruments kinetic plate reader (Ceres UV900HDi) at 25° C. during the linear portion of the time course (usually 1–5 min after addition of substrate). The concentration of inhibitor that caused a 50% decrease in the rate of substrate hydrolysis was predicted by linear regression after plotting the relative rates of hydrolysis (compared to the uninhibited control) versus the log of the peptide concentration. The enzyme concentration was 0.5 nM and substrate concentration was 140 μM.
row,Binder,Ki [µM]
1,Isobutyl-YIRLA-NH2 [(iBu)Y-I-R-L-A-NH2],< 100
2,B1,< 100
3,B2,< 100
4,B3,< 100
5,Ac-[NMeY][Chg]RLP-NH2 [Ac-(Me)Y-Chg-R-L-P-NH2],< 100
6,Ac-Y[Cha]RLP-NH2 [Ac-Y-Cha-R-L-P-NH2],< 100
7,Ac-Y[Phg]RLP-NH2 [Ac-Y-Pgl-R-L-P-NH2],< 100
8,Ac-Y[Pen(Me)]RLP-NH2 [Ac-Y-Pen(Me)-R-L-P-NH2],< 100
9,Ac-[(iBu)Tyr][Chg]RLP-NH2 [Ac-(iBu)Y-Chg-R-L-P-NH2],< 100
10,YXRLP (N-term Ac; residue 2 = allo-Ile; C-term NH2) [Ac-Y-(allo-I)-R-L-P-NH2],< 100
11,Ac-Y[Thr(Me)]RLP-NH2 [Ac-Y-T(Me)-R-L-P-NH2],< 100
12,Ac-[(iBu)Tyr]I[Orn(Nδ-C3H7N)]LP-NH2 [Ac-(iBu)Y-I-Orn(N^δ-C3H7N)-L-P-NH2],< 100
13,Ac-[(iBu)Tyr]I[Dab(Nγ-C3H7N)″]LP-NH2 [Ac-(iBu)Y-I-Dab(N^γ-C3H7N)-L-P-NH2],< 100
14,B4,< 100
15,B5,< 100
16,B6,< 100
17,B7,< 100
